Data: US20240336909A1 (HARPOON THERAPEUTICS, published 2024)

T1: human EpCAM protein (human, UniProt P16422 24-265)
T1 construct: biotinylated in the Octet assays; also called hu EpCAM; biotinylated human EpCAM protein
T1 sequence (looked up): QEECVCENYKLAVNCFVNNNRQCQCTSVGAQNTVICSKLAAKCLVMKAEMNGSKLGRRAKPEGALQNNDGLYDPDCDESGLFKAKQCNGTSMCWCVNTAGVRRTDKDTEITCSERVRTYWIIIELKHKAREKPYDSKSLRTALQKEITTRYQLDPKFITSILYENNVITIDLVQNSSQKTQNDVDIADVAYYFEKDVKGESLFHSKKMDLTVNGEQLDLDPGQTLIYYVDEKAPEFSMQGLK


Assays:
human EpCAM protein = target: T1, human EpCAM protein; assay: colorimetric ELISA
From the text: (§1) Llamas were immunized with purified EpCAM protein expressed in Expi293 cells. A phage display library for expression of heavy variable antibody domains was constructed from circulating B cells. See van der Linden, de Geus, Stok, Bos,van Wassenaar, Verrips, and Frenken. 2000. J Immunol Methods 240:185-195. Phage clones were screened for binding to EpCAM by expressing anti-EpCAM proteins in E coli, preparing periplasmic extracts, and proteins were screened for human and cynomolgus EpCAM binding activity using a colorimetric ELISA.

cynomolgus EpCAM protein = target: T2, cynomolgus EpCAM protein (cynomolgus monkey); assay: colorimetric ELISA
T2 construct: biotinylated in the Octet assays; also called cy EpCAM; cynomolgus monkey EpCAM
From the text: as §1

T2 sequence (Q1WER1 24-265): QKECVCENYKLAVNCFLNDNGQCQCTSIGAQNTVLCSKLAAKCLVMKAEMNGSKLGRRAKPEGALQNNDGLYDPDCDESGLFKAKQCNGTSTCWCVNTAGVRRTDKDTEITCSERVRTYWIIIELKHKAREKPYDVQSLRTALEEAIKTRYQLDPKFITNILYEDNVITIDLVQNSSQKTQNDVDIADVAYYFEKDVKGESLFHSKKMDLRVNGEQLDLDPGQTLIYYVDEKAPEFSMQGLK

Row | Binder | ELISA absorbance (human EpCAM protein) | Human EpCAM/Control (human EpCAM protein) | Cynomolgus EpCAM/Control (cynomolgus EpCAM protein) | ELISA absorbance (cynomolgus EpCAM protein)
1 | Llama anti-EpCAM single domain antibody EPL86 (VHH, E. coli periplasmic extract) VHH: QVQLQESGGGLVQPGGSLRLSCAASGFTFSDWAMSWVRQAPGKGLEWVSGIHYGDHTTHYADFVKGRFTISRDDAKNTLYLQMNSLKPEDTAVYYCARGSTKGQGTQVTVSS | 0.8 absorbance | 8 ratio | 31 ratio | 3 absorbance
2 | Llama anti-EpCAM single domain antibody EPL153 (VHH, E. coli periplasmic extract) VHH: QVQLQESGGGLVQPGGSLRLSCAASGFTFSDWAMSWVRQAPGKGLEWVSSIHYGDHTTHYADFVKGRFTISRDDAKNTLYLQMNSLKPEDTAVYYCEKGTTRGQGTQVTVSS | 3.1 absorbance | 31 ratio | 21 ratio | 2.2 absorbance
3 | Llama anti-EpCAM single domain antibody EPL55 (VHH, E. coli periplasmic extract) VHH: QVQLQESGGGLVQAGGSLRLSCAASGDTFLRYAMGWFRQAPGKEREFVAAITWNGGNTDYAGSLKGRFTISRDNTKNTVYLQMNSLKPEDTAVYYCAADLTFGLASSHYQYDYWGQGTQVTVSS | 0.4 absorbance | 5 ratio | 7 ratio | 0.6 absorbance
4 | Llama anti-EpCAM single domain antibody EPL57 (VHH, E. coli periplasmic extract) VHH: QVQLQESGGGLVHTGGSLRLSCAFSGDTFLRYAMGWFRQAPGKEREFVAAITWNGGNTDYADSLKGRFTISRDNTKNTVYLQMNSLRPEDTAVYYCAADLTFGLASSHYQYDYWGQGTQVTVSS | 1.7 absorbance | 14 ratio | 27 ratio | 3.4 absorbance
5 | Llama anti-EpCAM single domain antibody EPL136 (VHH, E. coli periplasmic extract) VHH: QVQLQESGGGLVQPGGSLRLSCAASGDTFLRYAMGWFRQAPGKEREFVAAITWNGGNTDYAGSLKGRFTISRDNTKNTVYLQMNSLKPEDTAVYYCAADLTFGLASSHYQYDYWGQGTQVTVSS | 0.9 absorbance | 9 ratio | 13 ratio | 1.3 absorbance
6 | Llama anti-EpCAM single domain antibody EPL120 (VHH, E. coli periplasmic extract) VHH: QVQLQESGGGLVQAGGSLRLSCAASGFIFRAASISWYRQSPGNERELVATINSGGFTNYADSVLGRFTISRDNAKNTGYLQMNSLKPEDTAVYFCAATFLRSDGQPPIWGQGTQVTVSS | 3.2 absorbance | 5 ratio | 4 ratio | 2.3 absorbance
7 | Llama anti-EpCAM single domain antibody EPL20 (VHH, E. coli periplasmic extract) VHH: QVQLQESGGGLVQAGGSLKLSCAASGNVFRAATMAWYRQAPEKQREMVATIASGGTTNYADFVKGRFTISRDNAKNTVYLQMNTLKPEDTAVYYCNAGYLTSLGPKNYWGQGTQVTVSS | 2.9 absorbance | 6 ratio | 4 ratio | 2.2 absorbance
8 | Llama anti-EpCAM single domain antibody EPL125 (VHH, E. coli periplasmic extract) VHH: QVQLQESGGGLVQAGGSLRLSCAASGNVFRAATMAWYRQVPEKQREMVATIASGGTTNYADFVKGRFTISRDNAKNTVYLQMNTLKPEDTAVYYCNALYLTSLGPKSYWGQGTQVTVSS | 3.5 absorbance | 8 ratio | 8 ratio | 3.5 absorbance
9 | Llama anti-EpCAM single domain antibody EPL13 (VHH, E. coli periplasmic extract) VHH: QVQLQESGGGLVQPGGSLRLSCAASGFAFGNHWMYWYRQAPGRGRELVASISSGGSTNYVDSVKGRFTISRDNARNTVYLQMYSLKPEDTAVYYCGTSDNWGQGTQVTVSS | 2.9 absorbance | 17 ratio | 23 ratio | 4 absorbance
10 | Llama anti-EpCAM single domain antibody EPL129 (VHH, E. coli periplasmic extract) VHH: QVQLQESGGGLVQAGGSLRLSCAASGFAFGNHWMYWYRQAPGRGRELVASISSGGSTNYVDSVKGRFTISRDNARNTVYLQMYSLRPEDTAVYYCGTSDNWGQGTQVTVSS | 2 absorbance | 20 ratio | 29 ratio | 3.1 absorbance
11 | Llama anti-EpCAM single domain antibody EPL15 (VHH, E. coli periplasmic extract) VHH: QVQLQESGGGSVLAGGSLRLSCAASGFTFSSYYMSWVRQAPGKGLEWVSGIHYTGDWTNYADSVKGRFTISRDNAKNELYLEMNNLKPEDTAVYYCARGSDKGQGTQVTVSS | 0.7 absorbance | 8 ratio | 35 ratio | 3.2 absorbance
12 | Llama anti-EpCAM single domain antibody EPL34 (VHH, E. coli periplasmic extract) VHH: QVQLQESGGGSVQAGGSLRLSCAASGFTFSSYYMSWVRQAPGKGLEWVSGIHYTGDWTNYADSVKGRFTISRDNAKNELYLEMNNLKPEDTAVYYCARGSDKGQGTQVTVSS | 0.9 absorbance | 10 ratio | 36 ratio | 3.1 absorbance
